From article PMC7949108, “Medulloblastoma-associated mutations in the DEAD-box RNA helicase DDX3X/DED1 cause specific defects in translation”

Tests used:
Experiment in all cases: fluorescence anisotropy; 2 mM ADP-BeFx; 20 mM HEPES pH 7.5, 40 mM NaCl, 20% glycerol, 2 mM ADP-BeFx; 2 nM RNA, 0-400 nM protein, 30 min; temperature not stated
Conditions in all cases: protein: recombinant; tags: His (pET28a); label: 5' 6-carboxyfluorescein; single strand
Ded1 wild-type = Ded1 wild-type (Saccharomyces cerevisiae, UniProt P06634 1-604)
Chain of Ded1 wild-type (P06634 whole entry): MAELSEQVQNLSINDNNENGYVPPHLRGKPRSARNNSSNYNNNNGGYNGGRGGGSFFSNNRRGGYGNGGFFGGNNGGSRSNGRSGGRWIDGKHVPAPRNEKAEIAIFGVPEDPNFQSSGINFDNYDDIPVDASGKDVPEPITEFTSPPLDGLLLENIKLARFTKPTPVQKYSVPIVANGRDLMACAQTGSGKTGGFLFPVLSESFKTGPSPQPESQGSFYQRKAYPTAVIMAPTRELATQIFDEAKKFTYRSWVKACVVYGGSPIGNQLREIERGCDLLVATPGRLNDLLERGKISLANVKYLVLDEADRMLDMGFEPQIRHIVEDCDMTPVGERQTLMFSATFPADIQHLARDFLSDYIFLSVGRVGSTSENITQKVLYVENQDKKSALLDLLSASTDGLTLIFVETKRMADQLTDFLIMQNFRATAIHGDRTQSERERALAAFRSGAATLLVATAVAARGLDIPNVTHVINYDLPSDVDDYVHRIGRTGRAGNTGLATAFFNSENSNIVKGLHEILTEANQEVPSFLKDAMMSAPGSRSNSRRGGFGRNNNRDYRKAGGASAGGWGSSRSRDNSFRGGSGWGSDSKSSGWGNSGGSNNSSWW

Ded1-S371F = Ded1-S371F (Saccharomyces cerevisiae, UniProt P06634 1-604, S371F)
Chain of Ded1-S371F (P06634 whole entry S371F): as the sequence (P06634 whole entry) above, with S371F counted along it

Ded1-M339I = Ded1-M339I (Saccharomyces cerevisiae, UniProt P06634 1-604, M339I)
Chain of Ded1-M339I (P06634 whole entry M339I): as the sequence (P06634 whole entry) above, with M339I counted along it

Ded1-G488A = Ded1-G488A (Saccharomyces cerevisiae, UniProt P06634 1-604, G488A)
Chain of Ded1-G488A (P06634 whole entry G488A): as the sequence (P06634 whole entry) above, with G488A counted along it

B1: 16-mer RNA oligomer (ssRNA)
RNA: AGCACCGUAAAGACGC
Ded1 wild-type
  Kd: 13 nM
Ded1-S371F
  Kd: 11 nM
Ded1-M339I
  Kd: 110 nM
Ded1-G488A
  Kd: 78 nM
